Experimental data from patent publication US20240059799A1 (Pfizer, published 2024).

T1: recombinant human TL1A (human, UniProt O95150 71-251)
T1 construct: The ELISA method says only 'recombinant TL1A' coated on plates; homotrimeric cytokine; also called TNFSF15; recombinant TL1A
T1 chain: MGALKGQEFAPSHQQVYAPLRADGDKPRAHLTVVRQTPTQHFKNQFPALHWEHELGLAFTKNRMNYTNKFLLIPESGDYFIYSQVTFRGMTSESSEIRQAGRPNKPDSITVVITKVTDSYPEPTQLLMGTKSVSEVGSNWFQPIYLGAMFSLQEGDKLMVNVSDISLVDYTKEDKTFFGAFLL


Target: T1, recombinant human TL1A
Assay: competition ELISA on coated recombinant TL1A; competitor biotinylated TL1A-0002

Bioactivity relative to TL1A-0002	IC50	Binder
2 fold	10.3 nM	TL1A-0284 (antibody, human IgG1, kappa, V domains shown, human IgG1 effector-function-minimized / human kappa) VH: QVQLVQSGAEVKKPGASVKVSCKASGYDFTYYGVSWVRQAPGQGLEWMGWISTYNDNTHYAPSLQGRVTMTTDTSTSTAYMELRSLRSDDTAVYYCARESYYGSGAFRGGMDVWGQGTTVTVSS VL: DIQMTQSPSSLSASVGDRVTITCRASQSVSSYLAWYQQKPGKAPKLLIYDASNRATGVPSRFSGSGSGTDFTLTISSLQPEDFATYYCQQRSNWPWTFGQGTKVEIKR
1.9 fold	9.6 nM	TL1A-0292 (antibody, human IgG1, kappa, V domains shown, human IgG1 effector-function-minimized / human kappa) VH: QVQLVQSGAEVKKPGASVKVSCKASGYDFTYYGVSWVRQAPGQGLEWMGWISTYNTVTHYAPSLQGRVTMTTDTSTSTAYMELRSLRSDDTAVYYCARESYYGSGAFRGGMDVWGQGTTVTVSS VL: DIQMTQSPSSLSASVGDRVTITCRASQSVSSYLAWYQQKPGKAPKLLIYDASNRATGVPSRFSGSGSGTDFTLTISSLQPEDFATYYCQQRSNWPWTFGQGTKVEIKR
4.7 fold	23.8 nM	TL1A-0300 (antibody, V domains shown, IgG1 effector-minimized/kappa) VH: QVQLVQSGAEVKKPGASVKVSCKASGYDFTYYGIGWVRQAPGQGLEWMGWISTYNDNTHYAQKLQGRVTMTTDTSTSTAYMELRSLRSDDTAVYYCARESYYGSGAFRGGMDVWGQGTTVTVSS VL: DIQMTQSPSSLSASVGDRVTITCRASQSVSSYLAWYQQKPGKAPKLLIYDASNRATGVPSRFSGSGSGTDFTLTISSLQPEDFATYYCQQRSNWPWTFGQGTKVEIKR
1.6 fold	8 nM	TL1A-0288 (antibody, human IgG1, kappa, V domains shown, human IgG1 effector-function-minimized / human kappa) VH: QVQLVQSGAEVKKPGASVKVSCKASGYDFTYYGVSWVRQAPGQGLEWMGWISTYNTGTHYAPSLQGRVTMTTDTSTSTAYMELRSLRSDDTAVYYCARESYYGSGAFRGGMDVWGQGTTVTVSS VL: DIQMTQSPSSLSASVGDRVTITCRASQSVSSYLAWYQQKPGKAPKLLIYDASNRATGVPSRFSGSGSGTDFTLTISSLQPEDFATYYCQQRSNWPWTFGQGTKVEIKR
17.3 fold	87.3 nM	TL1A-0296 (antibody, V domains shown, IgG1 effector-minimized/kappa) VH: QVQLVQSGAEVKKPGASVKVSCKASGYDFTYYGVSWVRQAPGQGLEWMGWISTYGGNTHYAPSLQGRVTMTTDTSTSTAYMELRSLRSDDTAVYYCARESYYGSGAFRGGMDVWGQGTTVTVSS VL: DIQMTQSPSSLSASVGDRVTITCRASQSVSSYLAWYQQKPGKAPKLLIYDASNRATGVPSRFSGSGSGTDFTLTISSLQPEDFATYYCQQRSNWPWTFGQGTKVEIKR
3 fold	15 nM	TL1A-0303 (antibody, human IgG1, kappa, V domains shown, human IgG1 effector-function-minimized / human kappa) VH: QVQLVQSGAEVKKPGASVKVSCKASGYDFTYYGIGWVRQAPGQGLEWMGWISTYNTGTHYAPSLQGRVTMTTDTSTSTAYMELRSLRSDDTAVYYCARESYYGSGAHRGGMDVWGQGTTVTVSS VL: DIQMTQSPSSLSASVGDRVTITCRASQSVSSYLAWYQQKPGKAPKLLIYDASNRATGVPSRFSGSGSGTDFTLTISSLQPEDFATYYCQQRSNWPWTFGQGTKVEIKR
2 fold	10.1 nM	TL1A-0287 (antibody, human IgG1, kappa, V domains shown, human IgG1 effector-function-minimized / human kappa) VH: QVQLVQSGAEVKKPGASVKVSCKASGYDFTYYGVSWVRQAPGQGLEWMGWISTYNDNTHYAQKLQGRVTMTTDTSTSTAYMELRSLRSDDTAVYYCARESYYGSGAHRGGMDVWGQGTTVTVSS VL: DIQMTQSPSSLSASVGDRVTITCRASQSVSSYLAWYQQKPGKAPKLLIYDASNRATGVPSRFSGSGSGTDFTLTISSLQPEDFATYYCQQRSNWPWTFGQGTKVEIKR
2.4 fold	12.3 nM	TL1A-0295 (antibody, human IgG1, kappa, V domains shown, human IgG1 effector-function-minimized / human kappa) VH: QVQLVQSGAEVKKPGASVKVSCKASGYDFTYYGVSWVRQAPGQGLEWMGWISTYNTNTHYAPSLQGRVTMTTDTSTSTAYMELRSLRSDDTAVYYCARESYYGSGAHRGGMDVWGQGTTVTVSS VL: DIQMTQSPSSLSASVGDRVTITCRASQSVSSYLAWYQQKPGKAPKLLIYDASNRATGVPSRFSGSGSGTDFTLTISSLQPEDFATYYCQQRSNWPWTFGQGTKVEIKR
4 fold	20.4 nM	TL1A-0302 (antibody, V domains shown, IgG1 effector-minimized/kappa) VH: QVQLVQSGAEVKKPGASVKVSCKASGYDFTYYGIGWVRQAPGQGLEWMGWISTYNTGTHYAPSLQGRVTMTTDTSTSTAYMELRSLRSDDTAVYYCARESYYGSGAFRGGMDVWGQGTTVTVSS VL: DIQMTQSPSSLSASVGDRVTITCRASQSVSSYLAWYQQKPGKAPKLLIYDASNRATGVPSRFSGSGSGTDFTLTISSLQPEDFATYYCQQRSNWPWTFGQGTKVEIKR
4.5 fold	22.9 nM	TL1A-0299 (antibody, V domains shown, IgG1 effector-minimized/kappa) VH: QVQLVQSGAEVKKPGASVKVSCKASGYDFTYYGIGWVRQAPGQGLEWMGWISTYNDNTHYAPSLQGRVTMTTDTSTSTAYMELRSLRSDDTAVYYCARESYYGSGAHRGGMDVWGQGTTVTVSS VL: DIQMTQSPSSLSASVGDRVTITCRASQSVSSYLAWYQQKPGKAPKLLIYDASNRATGVPSRFSGSGSGTDFTLTISSLQPEDFATYYCQQRSNWPWTFGQGTKVEIKR
14.5 fold	73.1 nM	TL1A-0297 (antibody, V domains shown, IgG1 effector-minimized/kappa) VH: QVQLVQSGAEVKKPGASVKVSCKASGYDFTYYGVSWVRQAPGQGLEWMGWISTYGGNTHYAPSLQGRVTMTTDTSTSTAYMELRSLRSDDTAVYYCARESYYGSGAHRGGMDVWGQGTTVTVSS VL: DIQMTQSPSSLSASVGDRVTITCRASQSVSSYLAWYQQKPGKAPKLLIYDASNRATGVPSRFSGSGSGTDFTLTISSLQPEDFATYYCQQRSNWPWTFGQGTKVEIKR
1.6 fold	8 nM	TL1A-0294 (antibody, human IgG1, kappa, V domains shown, human IgG1 effector-function-minimized / human kappa) VH: QVQLVQSGAEVKKPGASVKVSCKASGYDFTYYGVSWVRQAPGQGLEWMGWISTYNTNTHYAPSLQGRVTMTTDTSTSTAYMELRSLRSDDTAVYYCARESYYGSGAFRGGMDVWGQGTTVTVSS VL: DIQMTQSPSSLSASVGDRVTITCRASQSVSSYLAWYQQKPGKAPKLLIYDASNRATGVPSRFSGSGSGTDFTLTISSLQPEDFATYYCQQRSNWPWTFGQGTKVEIKR
1.9 fold	9.7 nM	TL1A-0293 (antibody, human IgG1, kappa, V domains shown, human IgG1 effector-function-minimized / human kappa) VH: QVQLVQSGAEVKKPGASVKVSCKASGYDFTYYGVSWVRQAPGQGLEWMGWISTYNTVTHYAPSLQGRVTMTTDTSTSTAYMELRSLRSDDTAVYYCARESYYGSGAHRGGMDVWGQGTTVTVSS VL: DIQMTQSPSSLSASVGDRVTITCRASQSVSSYLAWYQQKPGKAPKLLIYDASNRATGVPSRFSGSGSGTDFTLTISSLQPEDFATYYCQQRSNWPWTFGQGTKVEIKR
4.9 fold	24.7 nM	TL1A-0301 (antibody, V domains shown, IgG1 effector-minimized/kappa) VH: QVQLVQSGAEVKKPGASVKVSCKASGYDFTYYGIGWVRQAPGQGLEWMGWISTYNDNTHYAQKLQGRVTMTTDTSTSTAYMELRSLRSDDTAVYYCARESYYGSGAHRGGMDVWGQGTTVTVSS VL: DIQMTQSPSSLSASVGDRVTITCRASQSVSSYLAWYQQKPGKAPKLLIYDASNRATGVPSRFSGSGSGTDFTLTISSLQPEDFATYYCQQRSNWPWTFGQGTKVEIKR
4.2 fold	21 nM	TL1A-0290 (antibody, V domains shown, IgG1 effector-minimized/kappa) VH: QVQLVQSGAEVKKPGASVKVSCKASGYDFTYYGVSWVRQAPGQGLEWMGWISTYNTGTHYAQKLQGRVTMTTDTSTSTAYMELRSLRSDDTAVYYCARESYYGSGAFRGGMDVWGQGTTVTVSS VL: DIQMTQSPSSLSASVGDRVTITCRASQSVSSYLAWYQQKPGKAPKLLIYDASNRATGVPSRFSGSGSGTDFTLTISSLQPEDFATYYCQQRSNWPWTFGQGTKVEIKR
5 fold	25.3 nM	TL1A-0298 (antibody, V domains shown, IgG1 effector-minimized/kappa) VH: QVQLVQSGAEVKKPGASVKVSCKASGYDFTYYGIGWVRQAPGQGLEWMGWISTYNDNTHYAPSLQGRVTMTTDTSTSTAYMELRSLRSDDTAVYYCARESYYGSGAFRGGMDVWGQGTTVTVSS VL: DIQMTQSPSSLSASVGDRVTITCRASQSVSSYLAWYQQKPGKAPKLLIYDASNRATGVPSRFSGSGSGTDFTLTISSLQPEDFATYYCQQRSNWPWTFGQGTKVEIKR
1.7 fold	8.6 nM	TL1A-0285 (antibody, human IgG1, kappa, V domains shown, human IgG1 effector-function-minimized / human kappa) VH: QVQLVQSGAEVKKPGASVKVSCKASGYDFTYYGVSWVRQAPGQGLEWMGWISTYNDNTHYAPSLQGRVTMTTDTSTSTAYMELRSLRSDDTAVYYCARESYYGSGAHRGGMDVWGQGTTVTVSS VL: DIQMTQSPSSLSASVGDRVTITCRASQSVSSYLAWYQQKPGKAPKLLIYDASNRATGVPSRFSGSGSGTDFTLTISSLQPEDFATYYCQQRSNWPWTFGQGTKVEIKR
2.3 fold	11.6 nM	TL1A-0286 (antibody, human IgG1, kappa, V domains shown, human IgG1 effector-function-minimized / human kappa) VH: QVQLVQSGAEVKKPGASVKVSCKASGYDFTYYGVSWVRQAPGQGLEWMGWISTYNDNTHYAQKLQGRVTMTTDTSTSTAYMELRSLRSDDTAVYYCARESYYGSGAFRGGMDVWGQGTTVTVSS VL: DIQMTQSPSSLSASVGDRVTITCRASQSVSSYLAWYQQKPGKAPKLLIYDASNRATGVPSRFSGSGSGTDFTLTISSLQPEDFATYYCQQRSNWPWTFGQGTKVEIKR
1.6 fold	7.9 nM	TL1A-0289 (antibody, human IgG1, kappa, V domains shown, human IgG1 effector-function-minimized / human kappa) VH: QVQLVQSGAEVKKPGASVKVSCKASGYDFTYYGVSWVRQAPGQGLEWMGWISTYNTGTHYAPSLQGRVTMTTDTSTSTAYMELRSLRSDDTAVYYCARESYYGSGAHRGGMDVWGQGTTVTVSS VL: DIQMTQSPSSLSASVGDRVTITCRASQSVSSYLAWYQQKPGKAPKLLIYDASNRATGVPSRFSGSGSGTDFTLTISSLQPEDFATYYCQQRSNWPWTFGQGTKVEIKR
